This is an account of results in patent US20060257407A1 (Janssen / Centocor, published 2006).

The target in assay [1] is T1, recombinant human IL-6 (human, UniProt P05231 30-212).
T1 construct: Bought from R&D Systems (206-IL-010); Biotinylated or coupled to beads in some assays; also called hIL-6; rhIL-6
Briefly: KinExA 3000, IgG at 200 pM mixed with 100-200 pM human IL-6, free IgG over time. As for the experimental part: (§1) To measure kₒₙ, individual IgGs at 200 pM were mixed with 100-200 pM of human IL-6 and the unbound IgG was detected by binding to human IL-6 covalently coupled to alzactone beads on the KinExA 3000 instrument. A series of measurements were taken over time. The resulting data was used to calculate the kₒₙ with the KinExA 3000 software. koff was calculated by using the formula KD=koff/kₒₙ.
On the technique in general: Kinetic exclusion samples the free partner from a solution-phase mixture.

Assay [2] concerns the target T1, recombinant human IL-6. Briefly: calculated, KinExA 3000. Here is the method:
(§2) The KinExA 3000 instrument, manufactured by Sapidyne, was used to measure binding kinetics. Briefly, human IL-6 was covalently coupled to alzactone beads and the binding of free IgG to the beads was detected on the instrument. […] For example, the chimeric anti-IL-6 antibody was used at a constant concentration of 5 pM and individual tubes were incubated with 0-200 pM of IL-6. Incubations for the other IgGs were set in a similar manner. After the incubation, free IgG in each equilibrated sample was determined on the KinExA 3000 instrument according to the manufacturer's instructions. KD values were determined by the KinExA 3000 software using the KinExA 3000 instrument, as described in more detail below.
as §1

Assay [3] addresses T1, recombinant human IL-6. Briefly: calculated from KD = koff/kon, KinExA 3000. Here is the method:
as §2, §1

The target of assay [4] is T2, IL-6/sIL-6R complex (human, UniProt P08887 20-358, limits assumed).
T2 construct: Formed on the plate: sIL-6R coated at 10 ug/ml, then human IL-6 added at 200 ng/ml; also called sIL-6/sIL-6R complex; IL-6/IL-6R complex
Put plainly: EIA: sIL-6R coated, 200 ng/ml human IL-6, antibody dilutions from 10 ug/ml, anti-human IgG-HRP. Here is the method: Costar EIA plates (Corning/Costar, Acton, Mass.) (Catalog # 9018) were coated with sIL-6R (10 μg/ml in PBS, 100 μl/well) overnight at 4° C. The plates were washed with 0.15M saline containing 0.02% (v/v) Tween 20 and wells were blocked with 1% (w/v) BSA in PBS, 200 μl/well for one hour at room temperature. The wells were washed again then in the sequential format incubated with 200 ng/ml human IL-6 (100 μl/well) in PBS for one hour at room temperature. Antibody was added to all wells in 10-fold serial dilutions from a starting concentration of 10 μg/ml in 100 μl/well for one hour at room temperature. After washing, the wells were incubated with goat anti-human IgG (H+L)-HRP-linked, (10 μg/ml in PBS) for 30 minutes at room temperature. The wells were washed and 100 μl/well of citrate-phosphate substrates solution (0.1M Citric Acid and 0.2M Sodium Phosphate, 0.01% H₂O₂ and 1 mg/ml OPD) was added for 15 minutes at room temperature. The reaction was stopped by addition of 25 μl/well of 4N sulfuric acid and the OD₄₉₀ was read via an automated ELISA plate reader (Molecular Devices Spectromax Plus, Sunnyvale, Calif.).
In addition, AME-A9, AME-A16, AME-18a, AME-20b, AME-22a, and AME-23a can detect IL-6 bound to sgp80 (sIL-6R) in a dose dependent manner using EIA. […] However, preincubation of IL-6 and any of these anti hIL-6 monoclonal antibodies precludes the ability of sIL-6R to bind IL-6.

Assay [5] addresses T1, recombinant human IL-6. Briefly: KinExA 3000. Here is the method:
as §2, §1

Assay [6] deals with T1, recombinant human IL-6. Briefly: KinExA 3000, equilibrium in solution, IgG at 1 pM with serially diluted human IL-6, 20 C. As for the experimental part:
as §2

Assay [7] has as its target T1, recombinant human IL-6. Put plainly: ELISA: IgG dilutions captured on goat anti-human kappa, biotinylated IL-6 at 200 ng/ml, NeutrAvidin-alkaline phosphatase, O.D. 560 after 15 min. Here is the method:
The ELISA generally used Costar 3366 microtiter plates coated with a goat anti-human kappa antibody. Dilutions of Fab (or IgG) were incubated in the coated wells for 1 hr at 22° C. The wells were then washed with PBS, 0.1% Tween 20 and biotinylated IL-6 at 200 ng/ml was added for 1 hour. After washing, an alkaline phosphatase conjugate of NeutrAvidin was added and incubated for 1 hour at 22° C. A colorimetric substrate was added after extensive washing and the bound IL-6 was determined. A variation of this ELISA included an extended wash step in a beaker of PBS, 0.01% BSA at 37° C. after the biotinylated IL-6 incubation, e.g., an 18 hour extended wash step.

Assay [8] deals with T1, recombinant human IL-6. Briefly: cell-based or functional assay.
Assay [9] concerns the target T1, recombinant human IL-6. Briefly: cell-based or functional assay. This is another data set of the same source.
The target in assay [10] is T1, recombinant human IL-6. Put plainly: KinExA 3000, equilibrium in solution, IgG at 0.5 pM with serially diluted human IL-6, 20 C. As for the experimental part: as §2
The target in assay [11] is recombinant human IL-6 (human) (UniProt P05231). Briefly: calculated from KD = koff/kon, KinExA 3000.
The target is the same in assay [12]. Put plainly: cell-based or functional assay.
Assay [13] has the same target. Put plainly: KinExA 3000, equilibrium in solution, IgG at 5 pM with serially diluted human IL-6, 20 C.
For assay [14] the target is unchanged. Briefly: KinExA 3000.
Assay [15] shares this target. Briefly: cell-based or functional assay. The source holds these as a separate data set.
Assay [16] has the same target. Put plainly: KinExA 3000, IgG at 200 pM mixed with 100-200 pM human IL-6, free IgG over time.
Assay [17] shares this target. Put plainly: calculated, KinExA 3000.
The target of assay [18] is IL-6/sIL-6R complex (human) (UniProt P08887). Put plainly: ELISA: sIL-6R coated at 10 µg/ml, human IL-6 added at 200 ng/ml, antibody dilutions, detection with HRP-anti-human IgG, OD490. Background: In an ELISA, binding on a coated surface is turned into a signal by an enzyme label.
Assay [19] addresses recombinant human IL-6 (human) (UniProt P05231). Put plainly: ELISA: IgG dilutions captured on goat anti-human kappa, biotinylated IL-6 at 200 ng/ml, NeutrAvidin-alkaline phosphatase, O.D. 560 after 15 min.

Positions count from the first letter of the chain named. Read-outs that look alike come from different tables or passages of the source.

T1 sequence (P05231 30-212 limits assumed): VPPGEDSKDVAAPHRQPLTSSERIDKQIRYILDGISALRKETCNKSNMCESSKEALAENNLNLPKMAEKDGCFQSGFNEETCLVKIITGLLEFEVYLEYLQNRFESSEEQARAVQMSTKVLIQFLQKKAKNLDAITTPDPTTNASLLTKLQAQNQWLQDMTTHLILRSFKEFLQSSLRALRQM
recombinant human IL-6 (human), sequence (P05231 30-212 limits assumed): as above
T2 sequence (chain, as listed by the source limits assumed, chain 1 of 2): as the sequence (P05231 30-212 limits assumed) above
T2 sequence (P08887 20-358 limits assumed, chain 2 of 2): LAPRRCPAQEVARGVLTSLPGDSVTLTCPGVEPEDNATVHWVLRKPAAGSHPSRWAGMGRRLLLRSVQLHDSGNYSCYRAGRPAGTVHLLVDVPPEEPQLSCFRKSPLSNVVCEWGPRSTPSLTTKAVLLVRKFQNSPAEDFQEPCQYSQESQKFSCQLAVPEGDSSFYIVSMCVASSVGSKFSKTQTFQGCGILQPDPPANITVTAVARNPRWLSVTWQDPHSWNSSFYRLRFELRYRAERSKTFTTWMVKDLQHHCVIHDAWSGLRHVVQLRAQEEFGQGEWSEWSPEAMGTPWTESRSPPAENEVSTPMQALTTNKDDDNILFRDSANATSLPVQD
IL-6/sIL-6R complex (human), sequence (chain, as listed by the source limits assumed, chain 1 of 2): as the sequence (P05231 30-212 limits assumed) above
IL-6/sIL-6R complex (human), sequence (P08887 20-358 limits assumed, chain 2 of 2): as the sequence (P08887 20-358 limits assumed, chain 2 of 2) above

B1: AME-20b (antibody, V domains shown)
VH: EVQLVESGGGLVQPGGSLRLSCAASGFQFSSFAMSWVRQAPGKGLEWVAKISPGGSYTYYSDTVTGRFTISRDNAKNSLYLQMNSLRAEDTAVYYCARQLWGYYALDIWGQGTTVTVSS
VL: EIVLTQSPATLSLSPGERATLSCSASISVSYMYWYQQKPGQAPRLLIYDMSNLASGIPARFSGSGSGTDFTLTISSLEPEDFAVYYCMQWSGYPYTFGGGTKVEIK
notes: Tested as IgG; also called 140
As to B1, in assay [1], the kon came to 4.7e+06 M⁻¹ s⁻¹. For the same molecule, the “Improvement Ratio of koff (against chimeric antibody)” value (“Improvement Ratio of koff” for short) in assay [2] is 3.5 fold. Besides, in assay [3], the koff was 3.7e-06 s⁻¹. The binding result in assay [4] is “binds”. Moreover, in assay [5], the “Improvement Ratio of KD (as compared to chimeric ab)” value (shortened to “Improvement Ratio of KD”) was 3.8 fold and the “Improvement Ratio of kon (against chimeric antibody)” value (“Improvement Ratio of kon” for short) worked out at 1 fold. In assay [6], the Kd amounted to 0.78 pM.

B2: AME-16 (antibody, V domains shown)
VH: B1 VH with Q28T, S61P, I108Y
VL: B1 VL with I27S, M50T, M88S
notes: Tested as IgG; also called AME-A16; 106
Consider B2, for which, in [1], the kon was 1e+06 M⁻¹ s⁻¹. In [2], the “Improvement Ratio of koff” value was 15.7 fold. For the same molecule, the koff in [3] is 8.3e-07 s⁻¹. Also, the binding result in [4] is reported as “binds”. Besides, in [5], the “Improvement Ratio of KD” value was found to be 3.6 fold and the “Improvement Ratio of kon” value worked out at 0.22 fold. Also, in [6], the Kd came to 0.83 pM. In [7], the “EC50 (read off the curve)” value is approximately 0.07 µg/mL.

B3: AME-19a (antibody, V domains shown)
VH: B1 VH with Q28T, S31P, Y57W
VL: B1 VL
notes: Tested as IgG; also called 136; human engineered anti-IL-6 (clone AME-19a) antibody
Regarding B3, the on-rate constant (kon) in assay [1] turned out to be 5.5e+06 M⁻¹ s⁻¹. In assay [8], the “EC50, growth of IL-6 dependent 7TD1 cells with 500 pg/ml human IL-6 (ATPlite)” value was 2.7 pM and the “improvement of EC50 against CNTO328, 7TD1 cell assay” value turned out to be 10 fold. Further, in [2], the “Improvement Ratio of koff” value is 65 fold. The koff in assay [3] was 2e-07 s⁻¹. The “EC50, growth of IL-6 dependent 7TD1 cells with 500 pg/ml human IL-6 (ATPlite)” value in assay [9] is 0.00041 µg/mL. In assay [5], the “Improvement Ratio of KD” value stood at 81.1 fold and the “Improvement Ratio of kon” value came to 1.2 fold. Further, the Kd in assay [10] was determined as 0.037 pM.

B4: AME-18a (antibody, V domains shown)
VH: B1 VH with S31P, Y57W
VL: B1 VL with I27S, M50F
notes: Tested as IgG; also called 130
Take B4: in assay [1], the kon is 2e+07 M⁻¹ s⁻¹. In addition, in [2], the “Improvement Ratio of koff” value was 5.4 fold. Moreover, the koff in [3] is 2.4e-06 s⁻¹. The binding result in [4] was “binds”. Besides, in assay [5], the “Improvement Ratio of KD” value was 25 fold and the “Improvement Ratio of kon” value stood at 4.4 fold. Further, the “EC50 (read off the curve)” value in assay [7] is approximately 0.09 µg/mL. In assay [10], the Kd stood at 0.12 pM.

B5: AME-23a (antibody, V domains shown)
VH: B1 VH with I108F
VL: B1 VL with I27Y
notes: Tested as IgG; also called 143
Take B5: in [1], the kon was determined as 7.4e+06 M⁻¹ s⁻¹. In addition, the “Improvement Ratio of koff” value in [2] was 295 fold. Moreover, in assay [3], the koff is 4.4e-08 s⁻¹. Further, the binding result in [4] was “binds”. Further, in assay [5], the “Improvement Ratio of KD” value is 500 fold and the “Improvement Ratio of kon” value came to 1.6 fold. Further, in assay [6], the Kd was determined as 0.006 pM.

B6: AME-22a (antibody, V domains shown)
VH: B1 VH with S31P, Y57W, S61P, V64D, I108F
VL: B1 VL with I27Y, M50F
notes: Tested as IgG; also called 150
In the case of B6, the kon in [1] worked out at 6e+06 M⁻¹ s⁻¹. The “Improvement Ratio of koff” value in assay [2] is 11.8 fold. Further, the koff in assay [3] is 1.1e-06 s⁻¹. Further, in [5], the “Improvement Ratio of KD” value is 16.7 fold and the “Improvement Ratio of kon” value is 1.3 fold. The Kd in assay [6] worked out at 0.18 pM.

B7: AME-A9 (antibody, V domains shown)
VH: B1 VH with Q28T, P53S, S61P, I108Y
VL: B1 VL with I27S, M50T, M88S
notes: Human engineered monoclonal antibody, detected with anti-human IgG; also called 104
As to B7, the binding result in assay [4] was “binds”. Moreover, the “EC50 (read off the curve)” value in [7] is approximately 0.09 µg/mL.

B8: chimeric anti-IL-6 antibody CNTO 328 (antibody, INN chains, looked up, V domains shown)
VH: EVQLVESGGKLLKPGGSLKLSCAASGFTFSSFAMSWFRQSPEKRLEWVAEISSGGSYTYYPDTVTGRFTISRDNAKNTLYLEMSSLRSEDTAMYYCARGLWGYYALDYWGQGTSVTVSS
VL: QIVLIQSPAIMSASPGEKVTMTCSASSSVSYMYWYQQKPGSSPRLLIYDTSNLASGVPVRFSGSGSGTSYSLTISRMEAEDAATYYCQQWSGYPYTFGGGTKLEIK
modifications: biotinylated in competition ELISA
For the molecule B8, the koff in assay [11] is 1.3e-05 s⁻¹. Moreover, the EC50, growth of IL-6 dependent 7TD1 cells with 500 pg/ml human IL-6 (ATPlite) in assay [12] worked out at 0.00409 µg/mL; in assay [15], 27 pM. Moreover, the Kd in assay [13] was found to be 3 pM. Further, the Improvement Ratio of KD (as compared to chimeric ab) in [14] is 1 fold. Moreover, the Improvement Ratio of kon (against chimeric antibody) in [14] worked out at 1 fold. Also, in [16], the kon was determined as 4.4e+06 M⁻¹ s⁻¹. Further, in [17], the Improvement Ratio of koff (against chimeric antibody) is 1 fold. The EC50 (read off the curve) in assay [18] was found to be 0.01 µg/mL; in assay [19], 0.1 µg/mL.

By kon is commonly meant a measure of how fast the partners come together. The koff is the first-order rate constant of dissociation. By Kd is commonly meant the free concentration of one partner at which half of the binding sites on the other are occupied at equilibrium, for simple one-to-one binding. One may read the EC50 (read off the curve) as the midpoint of the concentration-response curve.
